Measured values as given in PMC3213119.

Molecular target: TssM-ekto (periplasmic domain of TssM, 386-1129), after TEV cleavage (enteroaggregative Escherichia coli strain 17-2)
Assay: SEC-MALS; MALS/QELS/UV/RI of the TssM-ekto/TssJ complex; 10 mM HEPES pH 7.5, 150 mM NaCl

“TssJ (enteroaggregative E. coli Sci1 T6SS), residues 2-155 of the processed lipoprotein, fusion and tag cleaved (domain or fragment)” was tested, and the stoichiometry N was 1.
